According to US7947279B2, “Peptide having hydrolase activity” (The Trustees of Columbia University in the City of New York, priority 2005, dated 2011):
Entries after “also recorded” stand apart in the source; their conditions may differ.

Assays:
[1] = tested on: BST at the Schaffer collateral/CA1 connection of hippocampal slices; assay: Basal synaptic transmission (BST) in hippocampal slices; assay type: cell-based, mouse; conditions: for BST in WT slices (words): fusion protein 20 nM 1 hr or Aβ 200 nM 20 min, alone
[2] = tested on: SY5Y neuroblastoma cells transfected with a degron CL1-GFP expression vector; assay: Proteasome reporter assay (GFP^u); assay type: cell-based, human; conditions: fusion protein 20 nM with Aβ
In short: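 SH-SY5Y neuroblastoma cells stably expressing GFP fused to CL1 degron (GFP^u) in DMEM with 15% FBS. After treatment, GFP^u levels quantified by densitometry of anti-GFP immunoblots of total extracts (10 ug/lane), normalized to ERK.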

[3] = tested on: mice (WT and APP/PS1); assay: Contextual and cued fear conditioning; assay type: in vivo, mouse; conditions: for contextual freezing of APP/PS1 mice 1 day after training: 0.02-0.04 g/kg i.p. 4 hrs before training, 3-5 month-old
Description: Behavioral Studies: Fear conditioning was performed in a conditioning chamber as previously described (Bourtchuladze et al., 1994; Gong et al., 2004). For contextual and cued fear conditioning mice were placed in the conditioning chamber for 2 min before the onset of a discrete tone (CS) (a 30 sec sound at 2800 Hz and 85 dB). In the last 2 sec of the CS, mice were given a foot shock (US) of 0.50 mA for 2 sec through the bars of the floor. After the CS/US pairing, the mice were left in the conditioning chamber for another 30 sec and then placed back in their home cages. Freezing behavior, defined as the absence of all movement except for that necessitated by breathing, was scored using Freezeview software. To evaluate contextual fear learning, freezing was measured for 5 min in the chamber in which the mice were trained 24 hrs after training. To evaluate cued fear conditioning, following contextual testing, the mice were placed in a novel context (triangular cage with smooth flat floor and with vanilla odorant) for 2 min (pre-CS test), after which they were exposed to the CS for 3 min (CS test), and freezing was measured. To evaluate the contextual fear over time, mice were placed for 5 min in the chamber in which the mice were trained 7- 14- 21-days after training. Sensory perception of the shock was determined through threshold assessment. Each animal was placed individually into the conditioning chamber. […] Animal behavior was evaluated for the first visible response to the shock (flinch), the first extreme motor response (run/jump), and the first vocalized distress (scream). Threshold to flinching, jumping, and screaming was quantified for each animal by averaging of the shock intensity at which each animal manifested a behavioral response of that type to the foot shock. Visual, motor, and motivation skills were also tested with visible platform training by measuring the time and the speed to reach a visible platform placed within a pool filled with water (Gong et al., 2004). Both time to reach the platform and swimming speed were recorded and analyzed with a video tracking system (HVS-2020, HVS Image, UK). No difference was observed among different groups of mice in the experiments in which fear conditioning was tested both in the presence of LDN and TAT fusion proteins. To decide the time of administration of LDN, experiments were performed in which the inhibitor was injected intra-peritoneally at different intervals (4 hrs before, 1 hr before, 1 hr after and 4 hrs after) from the electric shock. During the training phase, no difference was found in the freezing of LDN- or vehicle-injected mice.

[4] = tested on: phospho-CREB at Ser-133; assay: Phospho-CREB (Ser-133) Western blot in hippocampal cultures; assay type: cell-based, rat
In short: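 Rat E18 hippocampal neurons cultured serum-free to 5 DIV, lysed in RIPA (pH 7.4, with phosphatase and protease inhibitors). Lysates resolved by SDS-PAGE and immunoblotted with anti-pCREB, HRP detection; band intensities quantified by densitometry and normalized to total ERK1/2.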

[5] = tested on: CA1-LTP in hippocampal slices; assay: CA1-LTP in hippocampal slices (theta-burst); assay type: cell-based, mouse; conditions: for Aβ-induced impairment of CA1-LTP (words): fusion protein 20 nM 1 hr, then plus Aβ 200 nM 20 min; for LTP in slices not treated with Aβ (words): fusion protein 20 nM, 3 theta-burst trains
[6] = 12-18 month APP/PS1 slices, 20 nM 1 hr
[7] = listed as Uch-L1 fusion protein
[8] = listed as TAT-HA-Uch-L1 peptide
[9] = 20 nM, 1 hr, listed as TAT-Uch-L1 fusion protein

B1: TAT-HA-Uch-L1: fusion protein: 11-amino acid transduction domain of HIV-transactivator protein (TAT) fused with an HA tag and human Uch-L1 (protein)
chain: MQLKPMEINPEMLNKVLSRLGVAGQWRFVDVLGLEEESLGSVPAPACALLLLFPLTAQHENFRKKQIEELKGQEVSPKVYFMKQTIGNSCGTIGLIHAVANNQDKLGFEDGSVLKQFLSETEKMSPEDRAKCFEKNEAIQAAHDAVAQEGQCRVDDKVNFHFILFNNVDGHLYELDGRMPFPVNHGASSEDTLLKDAAKVCREFTEREQGEVRFSAVALCKAA
modifications: left off: small tags and cut ends
- BST in slices from 12-18 month-old APP/PS1 mice ([1]; 20 nM, 1 hr): also improved; also recorded: improved BST
- BST [1, 6]: about 94 % that of TAT-HA-treated WT mice
- BST in WT slices (words) [1]: did not reveal any significant difference among treatments; also recorded: does not affect CA1-BST
- BST in WT slices (words) [1, 7]: does not affect
- Aβ-induced increase of GFP^u [2]: reversed
- Aβ-induced increase of GFP^u [2, 8]: blocked the increase of GFP^u
- contextual freezing of APP/PS1 mice 1 day after training [3]: failed to re-establish normal freezing; also recorded: does not improve learning the day after training
- contextual freezing of APP/PS1 mice 1 day after training ([3]; listed as TA-HA-Uch-L1): failed to re-establish normal freezing
- freezing responses of WT mice ([3]; 0.02-0.04 g/kg i.p., listed as TA-HA-Uch-L1): had no effect
- freezing responses of WT mice ([3]; 0.02-0.04 g/kg, i.p.): did not change the freezing time; also recorded: had no effect
- contextual freezing of APP/PS1 mice at 7, 14 and 21 days after training ([3]; single injection 0.02-0.04 g/kg i.p. 4 hrs prior to training): greatly increased the freezing time; also recorded: improves the retention of contextual fear conditioning; also recorded: re-established normal freezing time
- effect of Aβ on glutamate-induced CREB phosphorylation (words) ([4]; fusion protein 100 nM, 3 μM Aβ 24 hrs, 50 μM glutamate 15 min): totally blocked the effect of Aβ on CREB phosphorylation; also recorded: re-established; also recorded: completely opposed
- levels of phospho-CREB ([4]; fusion protein alone, no glutamate): did not affect levels of phospho-CREB
- LTP in slices from 4 month-old APP/PS1 mice ([5]; 20 nM, 1 hr): far greater potentiation; also recorded: elevated above vehicle treated slices; also recorded: completely reversed
- LTP in slices from 4 month-old WT mice ([5]; 20 nM, 1 hr): did not change the amplitude of LTP; also recorded: had no effect on LTP amplitude
- LTP in slices from 12-18 month-old APP/PS1 mice ([5]; 20 nM, 1 hr): greater potentiation; also recorded: had a beneficial effect; also recorded: reversed the impairment of LTP
- LTP in slices from 12-18 month-old WT mice ([5]; 20 nM, 1 hr): did not change the amplitude of LTP; also recorded: did not vary the amounts of potentiation; also recorded: did not affect LTP
- LTP in slices from 12-18 month-old APP/PS1 mice [5, 9]: reverses the decrease of LTP
- LTP in slices from 12-18 month-old WT mice [5, 9]: does not affect LTP
- Levels of LTP at 120 minutes after tetanus ([5]; 4 month APP/PS1 slices, 20 nM 1 hr): about 94 % those of TAT-HA-treated WT littermates
- Levels of LTP at 120 minutes after tetanus ([5]; 4 month WT slices, 20 nM 1 hr): about 98 % those of vehicle-treated WT slices
- levels of LTP [5, 6]: about 82 % that of TAT-HA-treated WT littermates
- Levels of LTP at 120 minutes after tetanus ([5]; 12-18 month WT slices, 20 nM 1 hr): 98.5 % of those of TAT-HA-treated WT slices
- rescue of LTP at different concentrations, S18Y versus TAT-HA-Uch-L1 (words) ([5]; 1 hr pre-treatment, then Aβ 200 nM 20 min, as low as 5 nM): No difference was detected; also recorded: no difference between the two forms
- LTP induced by weak tetanus ([5]; WT slices, 1 theta-burst train instead of 3): enhanced LTP; also recorded: increases LTP
- Aβ-induced impairment of CA1-LTP (words) [5]: protected against LTP suppression; also recorded: completely reversed
- Aβ-induced impairment of CA1-LTP (words) [5, 8]: protected against LTP suppression
- Aβ-induced impairment of CA1-LTP (words) ([5]; listed as TAT-Uch-L1 fusion protein): reversed; also recorded: rescued
- Aβ-induced impairment of CA1-LTP (words) [5, 7]: reverses the deficits of LTP
- LTP in slices not treated with Aβ (words) ([5]; 1 hr, WT slices): did not change the amplitude of LTP; also recorded: had no effect on LTP; also recorded: did not affect the amounts of potentiation; also recorded: did not affect LTP
- LTP in slices not treated with Aβ (words) ([5]; 1 hr, WT slices, listed as Uch-L1 fusion protein): does not affect
- baseline transmission in slices without tetanic stimulation ([5]; non-tetanized slices): did not modify the baseline; also recorded: had no effect on basal synaptic responses; also recorded: did not affect baseline transmission; also recorded: did not affect basal transmission; also recorded: Neither TAT-HA-Uch-L1 nor TAT-HA-iUch-L1 affected baseline transmission
